Consider ten molecules from US11433139B2, “Peptide vaccines against interleukin-31” (Zoetis Services LLC, priority 2018, dated 2022).

Test [1] addresses canine IL-31. Nature of the test: Affinity of anti-IL-31 antibodies by surface plasmon resonance (Biacore), canine IL-31 surface. The settings on record: IL-31 conjugated to the surface (FIG. 2). The test is classed as binding. As for the experimental part:
(§1) The affinity with which candidate mAbs bind canine and feline IL-31 was determined using surface plasmon resonance (SPR) on a Biacore system (Biocore Life Sciences (GE Healthcare), Uppsala, Sweden). To avoid affinity differences associated with differential surface preparation that can occur when immobilizing antibodies to surfaces; a strategy was employed where IL-31 was directly conjugated to the surface. Immobilization was obtained by amine coupling 5 μg/mL IL-31 using N-hydroxysuccinimide (NHS)/1-Ethyl-3-(3-dimethylaminopropyl) carbodiimide (EDC) chemistry. Chips were quenched with ethanolamine and the affinity with which all candidate mAbs bound to the immobilized IL-31 was evaluated. All curves were fit to a 1:1 model. Affinity constants (KD) less than 1×10^−11M (1E-11 M) are below the lower limit of quantitation of detection for the instrument. Results for affinity measurements are described herein.

Test [2] addresses feline IL-31. Kind of test: Affinity of anti-IL-31 antibodies by surface plasmon resonance (Biacore), feline IL-31 surface. The class given is binding. The settings on record: IL-31 conjugated to the surface (FIG. 2). As for the experimental part:
as §1
In general terms: SPR reads the build-up and loss of mass on a sensor chip optically.

“Also recorded” adds a separate entry of the source.

canine IL-31, sequence (as listed by the source): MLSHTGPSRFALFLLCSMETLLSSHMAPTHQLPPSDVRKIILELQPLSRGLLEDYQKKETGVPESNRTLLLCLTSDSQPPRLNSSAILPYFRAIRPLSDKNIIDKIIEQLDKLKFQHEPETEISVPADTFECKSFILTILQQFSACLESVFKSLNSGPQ
feline IL-31, sequence (as listed by the source): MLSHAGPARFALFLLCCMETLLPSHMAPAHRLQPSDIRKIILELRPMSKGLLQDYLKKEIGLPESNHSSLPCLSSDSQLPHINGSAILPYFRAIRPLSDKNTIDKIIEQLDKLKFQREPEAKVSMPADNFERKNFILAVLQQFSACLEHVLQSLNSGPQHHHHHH

B1: Feline 15H05 1.1: felinized 15H05, FEL_15H05_VH1 with FEL_15H05_VL1 (antibody, V domains shown)
VH: QVLLVQSGAEVRTPGASVKIFCKASGYSFTSYTIHWLRQAPAQGLEWMGNINPTSGYTENNQRFKDRLTLTADTSTNTAYMELSSLRSADTAMYYCARWGFKYDGEWSFDVWGAGTTVTVSS
VL: EIQMTQSPSSLSASPGDRVTITCRASQGISIWLSWYQQKPGKVPKLLIYKASNLHIGVPSRFSGSGSGTDFTLTISSLEPEDAATYYCLQSQTYPLTFGGGTKLEIK
Consider B1, for which the “affinity (KD) to canine IL-31” value in test [1] is listed as “neutral to positive impact on affinity”.

B2: Feline 15H05 1.1 FW1_3: FEL_15H05_VH1 with FEL_15H05_VL1_FW1_FW3 (antibody, V domains shown)
VH: QVLLVQSGAEVRTPGASVKIFCKASGYSFTSYTIHWLRQAPAQGLEWMGNINPTSGYTENNQRFKDRLTLTADTSTNTAYMELSSLRSADTAMYYCARWGFKYDGEWSFDVWGAGTTVTVSS
VL: DIQMNQSPSSLSASLGDTITVTCRASQGISIWLSWYQQKPGKVPKLLIYKASNLHIGVPPRFSGSGSGTHFTLTITSLQPEDIATYYCLQSQTYPLTFGGGTKLEIK
As for B2, the “affinity (KD) to feline IL-31” value in test [2] is given as “good affinity”. Moreover, the “affinity (KD) to canine IL-31” value in test [1] was “good affinity”.

B3: Feline 15H05_VH1 mouse VL: heterochimeric antibody, FEL_15H05_VH1 with MU_15H05_VL (antibody, V domains shown)
VH: QVLLVQSGAEVRTPGASVKIFCKASGYSFTSYTIHWLRQAPAQGLEWMGNINPTSGYTENNQRFKDRLTLTADTSTNTAYMELSSLRSADTAMYYCARWGFKYDGEWSFDVWGAGTTVTVSS
VL: DIQMNQSPSSLSASLGDTITVTCRASQGISIWLSWYQQKPGNIPKVLINKASNLHIGVPPRFSGSGSGTHFTLTITSLQPEDIATYYCLQSQTYPLTFGGGTKLEIN
Turning to B3, the “affinity (KD) to feline IL-31” value in test [2] was “restored the affinity to feline IL-31 to equivalent or better than the mouse and chimeric forms”. Besides, the “affinity (KD) to canine IL-31” value in test [1] is recorded as “improved affinity”.

B4: Feline 15H05 2.2: felinized 15H05, FEL_15H05_VH2 with FEL_15H05_VL2 (antibody, V domains shown)
VH: QVLLVQSGAEVRTPGASVKIFCKASGYGFTSYTIHWVRQSPAQGLEWMGNINPTSGYTENNQRFKDRLTLTADTSTNTAYMELSSLRSADTAMYYCARWGFKYDGEWSFDVWGAGTTVTVSS
VL: EITMTQSPGSLAGSPGQQVTMNCRASQGISIWLSWYQQKPGQHPKLLIYKASNLHIGVPDRFSGSGSGTDFTLTISNLQAEDVASYYCLQSQTYPLTFGGGTKLEIK
Consider B4, for which, in test [1], the “affinity (KD) to canine IL-31” value was “neutral to positive impact on affinity”.

B5: Feline 15H05 1.1_FW1_2: FEL_15H05_VH1 with FEL_15H05_VL1_FW1_FW2 (antibody, V domains shown)
VH: QVLLVQSGAEVRTPGASVKIFCKASGYSFTSYTIHWLRQAPAQGLEWMGNINPTSGYTENNQRFKDRLTLTADTSTNTAYMELSSLRSADTAMYYCARWGFKYDGEWSFDVWGAGTTVTVSS
VL: DIQMNQSPSSLSASLGDTITVTCRASQGISIWLSWYQQKPGNIPKVLINKASNLHIGVPSRFSGSGSGTDFTLTISSLEPEDAATYYCLQSQTYPLTFGGGTKLEIK
As to B5, the “affinity (KD) to feline IL-31” value in test [2] was “good affinity”. For the same molecule, the “affinity (KD) to canine IL-31” value in test [1] is listed as “good affinity”.

B6: Feline 15H05 1.1 FW1: FEL_15H05_VH1 with FEL_15H05_VL1_FW1 (antibody, V domains shown)
VH: QVLLVQSGAEVRTPGASVKIFCKASGYSFTSYTIHWLRQAPAQGLEWMGNINPTSGYTENNQRFKDRLTLTADTSTNTAYMELSSLRSADTAMYYCARWGFKYDGEWSFDVWGAGTTVTVSS
VL: DIQMNQSPSSLSASLGDTITVTCRASQGISIWLSWYQQKPGKVPKLLIYKASNLHIGVPSRFSGSGSGTDFTLTISSLEPEDAATYYCLQSQTYPLTFGGGTKLEIK
On to B6, for which, in test [2], the “affinity (KD) to feline IL-31” value is reported as “detrimental to the affinity”. For the same molecule, the “affinity (KD) to canine IL-31” value in test [1] is given as “detrimental to the affinity”.

B7: Feline 15H05 1.1 FW3: FEL_15H05_VH1 with FEL_15H05_VL1_FW3 (antibody, V domains shown)
VH: QVLLVQSGAEVRTPGASVKIFCKASGYSFTSYTIHWLRQAPAQGLEWMGNINPTSGYTENNQRFKDRLTLTADTSTNTAYMELSSLRSADTAMYYCARWGFKYDGEWSFDVWGAGTTVTVSS
VL: EIQMTQSPSSLSASPGDRVTITCRASQGISIWLSWYQQKPGKVPKLLIYKASNLHIGVPPRFSGSGSGTHFTLTITSLQPEDIATYYCLQSQTYPLTFGGGTKLEIK
As for B7, in test [2], the “affinity (KD) to feline IL-31” value was “excellent affinity”. Also, the “affinity (KD) to canine IL-31” value in test [1] is recorded as “excellent affinity”.

B8: Feline 15H05_VH3 mouse VL: heterochimeric antibody, FEL_15H05_VH3 with MU_15H05_VL (antibody, V domains shown)
VH: QVLLVQSGAEVRKPGASVKIFCKASGYSFTSYTIHWLRQAPEQGLEWMGNINPTSGYTENNQRFKDRLTLTADTSTNTAYMELSSLRSADTAMYYCARWGFKYDGEWSFDVWGAGTTVTVSS
VL: DIQMNQSPSSLSASLGDTITVTCRASQGISIWLSWYQQKPGNIPKVLINKASNLHIGVPPRFSGSGSGTHFTLTITSLQPEDIATYYCLQSQTYPLTFGGGTKLEIN
Turning to B8, in test [2], the “affinity (KD) to feline IL-31” value was “restored the affinity to feline IL-31 to equivalent or better than the mouse and chimeric forms”. For the same molecule, in test [1], the “affinity (KD) to canine IL-31” value is “improved affinity”.

B9: Feline 15H05 1.1 FW2: FEL_15H05_VH1 with FEL_15H05_VL1_FW2 (antibody, V domains shown)
VH: QVLLVQSGAEVRTPGASVKIFCKASGYSFTSYTIHWLRQAPAQGLEWMGNINPTSGYTENNQRFKDRLTLTADTSTNTAYMELSSLRSADTAMYYCARWGFKYDGEWSFDVWGAGTTVTVSS
VL: EIQMTQSPSSLSASPGDRVTITCRASQGISIWLSWYQQKPGNIPKVLINKASNLHIGVPSRFSGSGSGTDFTLTISSLEPEDAATYYCLQSQTYPLTFGGGTKLEIK
Turning to B9, in test [2], the “affinity (KD) to feline IL-31” value is listed as “excellent affinity; also recorded: increased affinity”. Further, in test [1], the “affinity (KD) to canine IL-31” value is given as “excellent affinity; also recorded: increased affinity”.

B10: Feline 15H05 3.2: felinized 15H05, FEL_15H05_VH3 with FEL_15H05_VL2 (antibody, V domains shown)
VH: QVLLVQSGAEVRKPGASVKIFCKASGYSFTSYTIHWLRQAPEQGLEWMGNINPTSGYTENNQRFKDRLTLTADTSTNTAYMELSSLRSADTAMYYCARWGFKYDGEWSFDVWGAGTTVTVSS
VL: EITMTQSPGSLAGSPGQQVTMNCRASQGISIWLSWYQQKPGQHPKLLIYKASNLHIGVPDRFSGSGSGTDFTLTISNLQAEDVASYYCLQSQTYPLTFGGGTKLEIK
As to B10, the “affinity (KD) to canine IL-31” value in test [1] is given as “neutral to positive impact on affinity”.
